From US20130129714A1 (UAB RESEARCH FOUNDATION, published 2013)
One block for each binder: values may come before it. Bridges are numbered along the chain shown (N, C = ends). Where no end group is shown, it is not given here.

How the values were obtained:
[1] = target: T1, human Tamm-Horsfall protein (human, UniProt P07911 25-587); experiment: competitive ELISA; light chains bound in the wells, Tamm-Horsfall protein in solution, linear peptide as inhibitor
Source text: (§1) Peptides known to react with the Tamm-Horsfall protein in the yeast two-hybrid assay were synthesized, cyclized, and used as inhibitors in a competitive ELISA experiment. The peptides were cyclized by adding cysteine residues to the amino and carboxyl-terminal portions of the peptides and generating an intramolecular disulfide bridge (FIG. 4). Cyclization facilitates formation of the loop structure in solution. Both the linear and cyclized peptides inhibited the binding of the Tamm-Horsfall protein to the immunoglobulin light chains bound in the wells of the microtiter plate, but the efficiency of inhibition was increased by cyclization of the peptide inhibitor.

[2] = target: T1, human Tamm-Horsfall protein; experiment: competitive ELISA (FIG. 7)
Source text: Mutation of the CDR3 sequence to disrupt the loop structure by substituting amino acid residues with phenyalanine confirmed that the secondary structure was an important determinant of binding (FIG. 6). The inhibitory capability of cyclized experimental ([…] (SEQ ID NO:32)) and control ([…] (SEQ ID NO:33)) peptides were then compared in a competitive ELISA assay. The experimental peptide served as a very efficient inhibitor of the binding interactions between the human Tamm-Horsfall protein and six different human immunoglobulin light chains (FIG. 7).

[3] = target: T1, human Tamm-Horsfall protein; experiment: competition studies for binding to Tamm-Horsfall protein
[4] = target: T1, human Tamm-Horsfall protein; experiment: competitive ELISA; light chains bound in the wells, Tamm-Horsfall protein in solution, cyclized peptide as inhibitor
Source text: as §1

IC50 [1]: 90.9 nM
B1: peptide 2 (LSADSSGSYLYVF (SEQ ID NO:2)), linear (peptide)
peptide: LSADSSGSYLYVF
notes: also called uncyclized peptide 2

binding result [2]: binds
B2: cyclized peptide (CLSADSSGSYLYVC) (SEQ ID NO:32) (peptide)
peptide: CLSADSSGSYLYVC
modifications: disulfide 1-14
notes: also called cyclized experimental peptide; experimental peptide

binding result [3]: binds
B3: synthetic peptide (MQGTHWPPLT (SEQ ID NO:3)) identical to the CDR3 region of SSH23 (peptide)
peptide: MQGTHWPPLT
notes: also called SSH23 CDR3 peptide

IC50 [1]: 55 nM
B4: peptide 1 (QSYDNTLSGSYVF (SEQ ID NO:1)), linear (peptide)
peptide: QSYDNTLSGSYVF
notes: also called uncyclized peptide 1

IC50 [4]: 24 nM
B5: peptide 2 (LSADSSGSYLYVF (SEQ ID NO:2)), cyclized (peptide)
peptide: CLSADSSGSYLYVFC
modifications: disulfide 1-15
notes: Built from the words 'cyclized by adding cysteine residues to the amino and carboxyl-terminal portions of the peptides'; also called cyclized peptide 2
